# Results published in publication PMC6697466, “Interaction Between the a3 Region of Factor VIII and the TIL’E’ Domains of the von Willebrand Factor” (Biophysical Journal, 2019).
# Where “and” joins values, the source holds several entries; their conditions need not be identical. Identical values can stand only once. Entries after “also recorded” stand apart in the source; their conditions may differ. Square brackets hold non-standard residues; d marks the D form. Ends that are not written are not given here. sY = N[C@@H](Cc1ccc(OS(=O)(=O)O)cc1)C(=O)O
# B1: FVIII a3 peptide a3_(sTyr1664-sTyr1680) (residues 1649–1689, Tyr1664 and Tyr1680 sulfated) (peptide)
# chain: EITRTTLQSDQEEID[sY]DDTISVEMKKEDFDI[sY]DEDENQSPR
# B2: VWF TIL’E’: residues 764–865 of VWF; constructs 1 and 3 used interchangeably (protein)
# chain: SLSCRPPMVKLVCPADNLRAEGLECTKTCQNYDLECMSMGCVSGCLCPPGMVRHENRCVALERCPCFHQGKEYAPGETVKIGCNTCVCQDRKWNCTDHVCDA
# modifications: left off: thioredoxin, N-terminal, cleaved | His6, N-terminal, cleaved
# notes: residues 764–865 of VWF; constructs 1 and 3 used interchangeably
# B3: VWF GAMG-TIL’E’: four amino acids GAMG followed by residues 766–864 of VWF (protein)
# chain: GAMGSCRPPMVKLVCPADNLRAEGLECTKTCQNYDLECMSMGCVSGCLCPPGMVRHENRCVALERCPCFHQGKEYAPGETVKIGCNTCVCQDRKWNCTDHVCD
# B4: VWF R854Q TIL’E’: VWD type 2N mutation R854Q introduced into the construct 1 background (protein)
# chain: SLSCRPPMVKLVCPADNLRAEGLECTKTCQNYDLECMSMGCVSGCLCPPGMVRHENRCVALERCPCFHQGKEYAPGETVKIGCNTCVCQDQKWNCTDHVCDA
# modifications: left off: thioredoxin, N-terminal, cleaved | His6, N-terminal, cleaved
# notes: VWD type 2N mutation R854Q introduced into the construct 1 background
# B5: VWF R816W TIL’E’: VWD type 2N mutation R816W introduced into the construct 3 background (protein)
# chain: SLSCRPPMVKLVCPADNLRAEGLECTKTCQNYDLECMSMGCVSGCLCPPGMVWHENRCVALERCPCFHQGKEYAPGETVKIGCNTCVCQDRKWNCTDHVCDA
# modifications: left off: His6, N-terminal, cleaved | DsbC, N-terminal, cleaved | HPC4 (…: ALA linker and …), C-terminal, state not stated
# notes: VWD type 2N mutation R816W introduced into the construct 3 background
# B6: R854K: mutation R854K introduced into the construct 1 background (protein)
# chain: SLSCRPPMVKLVCPADNLRAEGLECTKTCQNYDLECMSMGCVSGCLCPPGMVRHENRCVALERCPCFHQGKEYAPGETVKIGCNTCVCQDKKWNCTDHVCDA
# modifications: left off: thioredoxin, N-terminal, cleaved | His6, N-terminal, cleaved
# notes: mutation R854K introduced into the construct 1 background
# Experiments:
# FVIII [1] = conditions: full-length VWF R816W; cited from earlier work
# Source text: Arg816 is located in the VWF TIL’ β3-β4 sheet ([31]), where the largest chemical shift changes were observed (Figs. 2 and 3).
# [2] = biological target: B-domain deleted FVIII (N8, turoctocog alfa) (UniProt P00451); assay: ITC; MicroCal iTC200, 25 °C, 19 injections (first 0.4 uL, the rest 2 uL), 120 s between injections; who was in the syringe and the concentrations not given
# TIL’E’ = assay: ITC of FVIII a3 peptides with TIL’E’; type: binding; conditions: 25°C, higher concentrations not feasible due to solubility
# Protocol: (§1) ITC experiments were performed on a MicroCal iTC200 (Malvern Instruments, Malvern, UK) at 25°C. All experiments were performed with a total of 19 injections (the first injection 0.4 μL, the rest 2 μL), with 120 s between each injection and an initial delay of 60 s. The reference power was set to 6 μcal/s, and the syringe was stirred at 750 or 1000 Rpm depending on the specifications of the syringe. The concentrations of proteins used are specified in the figure legends.
# VWF TIL’E’ R816W = assay: NMR 15N-1H HSQC of VWF TIL’E’ R816W with FVIII a3sTyr1664-sTyr1680; type: binding; conditions: five molar excess of peptide, 298 K
# Protocol: All NMR spectra were recorded at 298 K on Bruker Avance III 700 MHz or Bruker Avance III HD 800 MHz spectrometers equipped with cryoprobes. NMR samples consisted of 10–300 μM isotope labeled TIL’E’ in 10 mM HEPES 300 mM NaCl 5 mM CaCl2 5% D2O pH 7.3.
# Two-dimensional ^15N-^1H heteronuclear single quantum correlation (HSQC) spectra ([39]) were recorded with 3-9-19 Watergate, whereas two-dimensional methyl–transverse relaxation optimized spectroscopy (TROSY) experiments were recorded using the standard heteronuclear multiple quantum coherence pulse scheme ([40]).
# Arg816 is located in the VWF TIL’ β3-β4 sheet ([31]), where the largest chemical shift changes were observed (Figs. 2 and 3). […] However, the most affected residues are located far from each other on the three-dimensional structure of VWF TIL’E’.
# [3] = biological target: T1, VWF TIL’E’ (construct 1, residues 764–865 of VWF) (UniProt P04275 764-865); assay: NMR titration; 15N-1H HSQC of 100 uM 15N-labelled VWF TIL’E’ free and with ~500 uM (five molar excess) unlabelled FVIII a3 peptide; 298 K; 10 mM HEPES 300 mM NaCl 5 mM CaCl2 5% D2O pH 7.3; saturation not reached, upper bound of Kd from chemical shift changes; conditions: both partners purified
# T1 construct: von Willebrand factor, TIL’E’ domains, residues 764-865; mature VWF starts at Ser764; enterokinase site GTDDDDK immediately before residue 764; every result printed for plain 'VWF TIL’E’' is written on this molecule; Uniformly 15N-labelled or ILV-13CH3/2H-labelled in the NMR experiments; also called wild-type VWF TIL’E’; source: thioredoxin and His6 tag cut off with enterokinase; not shown: …
# FVIII [4] = assay: ITC of VWF TIL’E’ constructs and mutants with FVIII; type: binding; conditions: 25°C; for N: ITC stoichiometry
# Protocol: as §1
# [5] = ITC, three independent ITC experiments
molecule,measurement,setting,value
"VWF R816W: full-length VWF R816W, severe VWD type 2N mutation",binding to FVIII in ELISA,FVIII [1],does not bind FVIII
VWF TIL’E’-ALA-HPC4 expressed in HKB11 cell line (construct 4) (domain or fragment),Kd,[2],0.75 µM
CC[C@H](C)[C@H](NC(=O)[C@H](CC(=O)O)NC(=O)[C@H](Cc1ccccc1)NC(=O)[C@H](CC(=O)O)NC(=O)[C@H](CCC(=O)O)NC(=O)[C@H](CCCCN)NC(=O)[C@H](CCCCN)NC(=O)[C@H](CCSC)NC(=O)[C@H](CCC(=O)O)NC(=O)[C@@H](NC(=O)[C@H](CO)NC(=O)[C@@H](NC(=O)[C@@H](NC(=O)[C@H](CC(=O)O)NC(=O)[C@H](CC(=O)O)NC(=O)[C@H](Cc1ccc(OS(=O)(=O)O)cc1)NC(=O)[C@H](CC(=O)O)NC(=O)[C@@H](NC(=O)[C@H](CCC(=O)O)NC(=O)[C@H](CCC(=O)O)NC(=O)[C@H](CCC(N)=O)NC(=O)[C@H](CC(=O)O)NC(=O)[C@H](CO)NC(=O)[C@H](CCC(N)=O)NC(=O)[C@H](CC(C)C)NC(=O)[C@@H](NC(=O)[C@@H](NC(=O)[C@H](CCCNC(=N)N)NC(=O)[C@@H](NC(=O)[C@@H](NC(=O)[C@@H](N)CCC(=O)O)[C@@H](C)CC)[C@@H](C)O)[C@@H](C)O)[C@@H](C)O)[C@@H](C)CC)[C@@H](C)O)[C@@H](C)CC)C(C)C)C(=O)N[C@@H](Cc1ccc(OS(=O)(=O)O)cc1)C(=O)N[C@@H](CC(=O)O)C(=O)N[C@@H](CCC(=O)O)C(=O)N[C@@H](CC(=O)O)C(=O)N[C@@H](CCC(=O)O)C(=O)N[C@@H](CC(N)=O)C(=O)N[C@@H](CCC(N)=O)C(=O)N[C@@H](CO)C(=O)N1CCC[C@H]1C(=O)N[C@@H](CCCNC(=N)N)C(=O)O [a3sTyr1664-sTyr1680],binding to TIL’E’ by ITC (in words),TIL’E’,no high-affinity binding
same,effect of R816W on affinity between FVIII a3 and VWF TIL’E’,VWF TIL’E’ R816W,decreases the affinity
"VWF TIL’E’ (construct 1, residues 764–865 of VWF) (from UniProt P04275 764-865) (domain or fragment)",Kd,[2],0.71 µM
same,dH,[2],-12 kcal/mol
same,stoichiometry N,[2],1
"VWF TIL’E’-ALA-HPC4 (construct 3, residues 764–865 with C-terminal HPC4 tag), from E. coli (from UniProt P04275 764-865) (domain or fragment)",Kd,[2],0.64 µM
VWF TIL’E’ R854Q (in the construct 1 background) (from UniProt P04275 764-865) (domain or fragment),Kd,[2],7.2 µM
same,dH,[2],-7.5 kcal/mol
same,stoichiometry N,[2],1.29
VWF TIL’E’ R854K (in the construct 1 background) (from UniProt P04275 764-865) (domain or fragment),Kd,[2],25 µM
B1,Kd,[3],< 25000 µM
B2,N,FVIII [4]; three independent ITC experiments,1.0 ± 0.3
same,binding to FVIII by ITC (in words),FVIII [4]; ITC,micromolar interaction
same,Kd,FVIII [4]; [5],0.7 µM and 0.71 µM
same,ΔH,FVIII [4]; [5],-12.0 ± 1.3 kcal/mol
B3,binding to FVIII by ITC (in words),FVIII [4]; ITC,substantially reduced binding; also recorded: the binding to FVIII had been abrogated; also recorded: unable to bind FVIII with micromolar affinity
B4,N,FVIII [4]; one run,1.29 ± 0.03
same,binding to FVIII by ITC (in words),FVIII [4]; ITC,Weak binding
same,increase in Kd compared to the wild-type,FVIII [4]; ITC,about an order of magnitude
same,Kd,"FVIII [4]; ITC, one run",7.2 ± 0.6 µM
same,ΔH,"FVIII [4]; ITC, one run",-7.5 ± 0.2 kcal/mol
B5,binding to FVIII by ITC (in words),"FVIII [4]; ITC, listed as VWF TIL’E R816W",no binding was observed
B6,Kd,"FVIII [4]; ITC, n not given",25 ± 20 µM
